B1: library; numbered along this chain (parent)
chain: MRKPRAAVGSGHRKQAASQEGRQKHAKNNSQAKPSACDGLARQPEEVVLQASVSSYHLFRDVAEVTAFRGSLLSWYDQEKRDLPWRRRAEDEMDLDRRAYAVWVSEVMLQQTQVATVINYYTGWMQKWPTLQDLASASLEEVNQLWAGLGYYSRGRRLQEGARKVVEELGGHMPRTAETLQQLLPGVGRYTAGAIASIAFGQATGVVDGNVARVLCRVRAIGADPSSTLVSQQLWGLAQQLVDPARPGDFNQAAMELGATVCTPQRPLCSQCPVESLCRARQRVEQEQLLASGSLSGSPDVEECAPNTGQCHLCLPPSEPWDQTLGVVNFPRKASRKPPREESSATCVLEQPGALGAQILLVQRPNSGLLAGLWEFPSVTWEPSEQLQRKALLQELQRWAGPLPATHLRHLGEVVHTFSHIKLTYQVYGLALEGQTPVTTVPPGARWLTQEEFHTAAVSTAMKKVFRVYQGQQPGTCMGSKRSQVSSPCSRKKPRMGQQVLDNFFRSHISTDAHSLNSAAQ

The variants in the data set derive from B1. The data set is described as follows: 8OG:A repair function score (normalized; synonymous = 0, nonsense = -1) (normalized log-likelihood score); higher = more repair activity (WT-like). The conditions noted are these: with 8OG:A DNA repair reporter (GFP) in HEK-293 MUTYH KO cells. As to the method: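 Saturation mutagenesis (NNN codon scan) of the MUTYH cDNA (521-aa nuclear isoform NM_001048174.1 / NP_001041639), stably expressed under doxycycline induction in HEK-293 MUTYH knockout cells. Cells were co-transfected with an 8OG:A-bearing GFP repair reporter plus mCherry and sorted 72 h later into GFP+ and GFP− bins, three replicates per tile. The Rosace log2 enrichment (GFP+ vs GFP−) was converted per tile to a normalized function score with synonymous variants centered at 0 and nonsense variants (codons 1-471) at -1; low-abundance variants were removed.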
On to R336G, for which the “8OG:A repair function score” value was -0.112.

For the variant A51C, the “8OG:A repair function score” value is 0.0297.

Regarding P247V, the “8OG:A repair function score” value is -0.95.

Consider V500T, for which the “8OG:A repair function score” value was 0.02.

Take V500E: the “8OG:A repair function score” value is 0.0219.

For the variant W124R, the “8OG:A repair function score” value is -1.05.

Regarding Q271W, the “8OG:A repair function score” value was -0.0164.

Turning to D77F, the “8OG:A repair function score” value is -0.0355.

Take D77K: the “8OG:A repair function score” value was -0.0637.

Regarding Q397H, the “8OG:A repair function score” value was -0.717.

On to Q397S, for which the “8OG:A repair function score” value is -0.159.

Consider F505C, for which the “8OG:A repair function score” value was determined as 0.0238.

For the variant D133A, the “8OG:A repair function score” value was -0.000201.

With A405K, the “8OG:A repair function score” value amounted to 0.0168.

Turning to R482E, the “8OG:A repair function score” value is 0.00949.

In the case of R482L, the “8OG:A repair function score” value is 0.00831.

For A162S, the “8OG:A repair function score” value is -0.159.

S197Y: the “8OG:A repair function score” value was -0.898.

On to G171M, for which the “8OG:A repair function score” value is -0.536.

With G171W, the “8OG:A repair function score” value was -0.633.

K3N: the “8OG:A repair function score” value stood at 0.00918.

A177K: the “8OG:A repair function score” value was -0.0185.

Take Q472D: the “8OG:A repair function score” value stood at 0.0112.

Turning to L396W, the “8OG:A repair function score” value was -0.581.

As for G201S, the “8OG:A repair function score” value is -0.0385.

Take R279W: the “8OG:A repair function score” value was -0.139.

With Q144H, the “8OG:A repair function score” value was -0.0216.

On to I221P, for which the “8OG:A repair function score” value is -1.01.

Turning to P331D, the “8OG:A repair function score” value was -0.501.

For the variant P331R, the “8OG:A repair function score” value is -0.474.

Regarding P273C, the “8OG:A repair function score” value is -0.28.

Turning to P273K, the “8OG:A repair function score” value is -0.708.

For W381P, the “8OG:A repair function score” value was -0.215.

Regarding L134C, the “8OG:A repair function score” value was -0.394.

Regarding Y56H, the “8OG:A repair function score” value was -0.00595.

As to I509Q, the “8OG:A repair function score” value amounted to 0.0194.

As to I509N, the “8OG:A repair function score” value worked out at 0.0286.

For W128T, the “8OG:A repair function score” value was -0.721.

For G326E, the “8OG:A repair function score” value was -0.144.

Take L411G: the “8OG:A repair function score” value is -0.531.

For the variant E287P, the “8OG:A repair function score” value is -0.121.

With E342F, the “8OG:A repair function score” value is -0.0595.

Consider L131E, for which the “8OG:A repair function score” value was -0.608.

As to L183R, the “8OG:A repair function score” value was -0.105.

For D243S, the “8OG:A repair function score” value is -0.358.

For the variant D243T, the “8OG:A repair function score” value was -0.727.

Take C489M: the “8OG:A repair function score” value came to 0.00595.

Turning to P316I, the “8OG:A repair function score” value was -0.253.

Take V415M: the “8OG:A repair function score” value worked out at 0.0821.

Turning to L83A, the “8OG:A repair function score” value was -0.379.

Take V114Y: the “8OG:A repair function score” value is -0.241.

For the variant V114H, the “8OG:A repair function score” value is -0.935.

For V114K, the “8OG:A repair function score” value is -0.435.

As to W374N, the “8OG:A repair function score” value was -0.645.

As to E413A, the “8OG:A repair function score” value is -0.0523.

On to G297Q, for which the “8OG:A repair function score” value was -0.0223.

For the variant E92K, the “8OG:A repair function score” value is -0.0744.

On to V427S, for which the “8OG:A repair function score” value was -0.925.

For V427C, the “8OG:A repair function score” value was -0.195.

Regarding R156P, the “8OG:A repair function score” value is -0.341.

For the variant Q286K, the “8OG:A repair function score” value was -0.000545.

With W146V, the “8OG:A repair function score” value was -0.296.

In the case of G248V, the “8OG:A repair function score” value was -0.998.

Turning to P320C, the “8OG:A repair function score” value was -0.000958.

For the variant R246Y, the “8OG:A repair function score” value was -0.517.

With R246I, the “8OG:A repair function score” value was -0.836.

As to V379L, the “8OG:A repair function score” value was -0.463.

For V47K, the “8OG:A repair function score” value was 0.00868.

In the case of N251G, the “8OG:A repair function score” value is -0.951.

Take F59I: the “8OG:A repair function score” value was -0.137.

Regarding F59V, the “8OG:A repair function score” value is -0.24.

Take R189V: the “8OG:A repair function score” value was -0.148.

Regarding G188N, the “8OG:A repair function score” value is -0.923.

With G188Y, the “8OG:A repair function score” value was -0.89.

For A456N, the “8OG:A repair function score” value is -0.487.

As for T260N, the “8OG:A repair function score” value was -0.111.

T260W: the “8OG:A repair function score” value was -0.207.

T260D: the “8OG:A repair function score” value is -0.355.

As to T346M, the “8OG:A repair function score” value was -0.125.

As to C269I, the “8OG:A repair function score” value is -1.26.

In the case of C269R, the “8OG:A repair function score” value was -1.15.

Turning to A254Q, the “8OG:A repair function score” value is -0.213.

Consider A254R, for which the “8OG:A repair function score” value is -0.99.
